EP1469082A1 (Boehringer Ingelheim International GmbH, dated 2004)
Blank lines part the entries; values can stand above or below the binder they belong to.

Assays:
[1] = target: T1, recombinant HisHA-tagged APC8 (UniProt Q9UJX2 1-597); assay: peptide matrix pull-down from insect cell lysate, western blot
T1 construct: Expressed from baculovirus and used as insect cell lysate; also called APC8/CDC23; not shown: HisHA tag

[2] = target: T2, recombinant HisHA-tagged APC5 (UniProt Q9UJX4 1-755); assay: as above
T2 construct: Expressed from baculovirus and used as insect cell lysate; not shown: HisHA tag

[3] = target: T3, native CDC26 from late-eluting Q column fractions of HeLa extract (human, UniProt Q8NHZ8 1-85); assay: peptide matrix pull-down from late-eluting Q column fractions, western blot
T3 construct: Endogenous protein in anion exchange fractions

[4] = target: T4, APC7 fragment containing the N-terminal 297 amino acids (human, UniProt Q9UJX3 1-297, limits assumed); assay: peptide binding assay with recombinant APC7 fragments
T4 construct: Recombinantly expressed fragment; also called APC7 N-terminal fragment

[5] = target: T5, APC7 C-terminal part (amino acids 298 to 565) comprising the block of TPRs (human, UniProt Q9UJX3 298-565, limits assumed); assay: as above
T5 construct: Recombinantly expressed fragment; also called APC7 TPR domain; APC7 C-terminal fragment

[6] = target: T6, recombinant HisHA-tagged APC3 (human, UniProt P30260 1-824); assay: peptide matrix pull-down from insect cell lysate, western blot
T6 construct: Expressed from baculovirus in Sf9 or Hi5 cells and used as insect cell lysate; also called APC3/CDC27; not shown: HisHA tag

[7] = target: T7, holo-APC (Anaphase Promoting Complex / cyclosome) from HeLa cells (human, UniProt Q9H1A4 1-1944; Q9UJX6 1-822; P30260 1-824; Q9UJX5 1-808; Q9UJX4 1-755; Q13042 …); assay: peptide matrix pull-down from APC-containing fractions, western blot
T7 construct: Native multisubunit complex with 11 known subunits; It carries substoichiometric amounts of endogenous CDH1; also called immunopurified APC; APC-IPs

T2 sequence (Q9UJX4 whole entry): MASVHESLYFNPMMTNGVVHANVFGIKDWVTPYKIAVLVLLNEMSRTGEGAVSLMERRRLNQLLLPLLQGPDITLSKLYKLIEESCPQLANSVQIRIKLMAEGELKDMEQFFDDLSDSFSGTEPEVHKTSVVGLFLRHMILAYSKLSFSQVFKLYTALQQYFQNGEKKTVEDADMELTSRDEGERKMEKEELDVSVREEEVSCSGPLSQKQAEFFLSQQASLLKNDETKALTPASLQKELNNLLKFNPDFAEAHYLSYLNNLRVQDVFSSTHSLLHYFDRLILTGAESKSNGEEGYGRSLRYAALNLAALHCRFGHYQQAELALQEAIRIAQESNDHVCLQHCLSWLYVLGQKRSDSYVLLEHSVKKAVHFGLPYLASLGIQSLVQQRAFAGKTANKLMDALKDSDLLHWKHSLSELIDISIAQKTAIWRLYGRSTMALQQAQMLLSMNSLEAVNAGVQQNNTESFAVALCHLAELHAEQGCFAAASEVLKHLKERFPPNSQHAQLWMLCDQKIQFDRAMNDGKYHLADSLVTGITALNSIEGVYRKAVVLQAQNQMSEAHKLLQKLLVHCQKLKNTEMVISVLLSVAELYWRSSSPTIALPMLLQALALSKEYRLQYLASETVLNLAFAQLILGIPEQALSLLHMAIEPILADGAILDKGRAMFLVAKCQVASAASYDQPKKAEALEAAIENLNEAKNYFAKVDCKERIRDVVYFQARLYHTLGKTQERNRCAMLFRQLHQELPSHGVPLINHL
T5 sequence (Q9UJX3 298-565 limits assumed): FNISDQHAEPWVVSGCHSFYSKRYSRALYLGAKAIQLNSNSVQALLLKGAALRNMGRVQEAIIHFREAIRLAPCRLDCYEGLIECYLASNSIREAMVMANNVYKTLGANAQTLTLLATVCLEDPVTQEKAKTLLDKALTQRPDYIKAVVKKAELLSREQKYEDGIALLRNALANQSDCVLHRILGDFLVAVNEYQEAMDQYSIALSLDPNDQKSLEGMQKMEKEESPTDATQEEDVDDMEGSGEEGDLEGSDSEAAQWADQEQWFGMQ
T1 sequence (Q9UJX2 whole entry): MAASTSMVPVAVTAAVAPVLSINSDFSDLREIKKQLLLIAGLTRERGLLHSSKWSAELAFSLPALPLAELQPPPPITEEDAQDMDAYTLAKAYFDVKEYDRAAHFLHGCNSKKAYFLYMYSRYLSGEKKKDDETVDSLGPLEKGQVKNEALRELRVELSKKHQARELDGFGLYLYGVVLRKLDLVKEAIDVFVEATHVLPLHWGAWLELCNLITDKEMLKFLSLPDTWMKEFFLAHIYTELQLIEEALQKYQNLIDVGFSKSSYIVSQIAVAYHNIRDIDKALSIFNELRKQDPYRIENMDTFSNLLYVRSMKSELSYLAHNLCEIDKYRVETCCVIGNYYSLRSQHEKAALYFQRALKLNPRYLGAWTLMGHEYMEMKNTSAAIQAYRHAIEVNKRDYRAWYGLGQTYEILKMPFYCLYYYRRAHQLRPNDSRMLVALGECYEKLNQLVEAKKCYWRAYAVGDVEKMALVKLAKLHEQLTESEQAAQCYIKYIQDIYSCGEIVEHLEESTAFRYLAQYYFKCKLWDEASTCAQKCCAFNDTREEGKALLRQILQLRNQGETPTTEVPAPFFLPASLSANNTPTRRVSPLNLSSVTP
T3 sequence (Q8NHZ8 whole entry): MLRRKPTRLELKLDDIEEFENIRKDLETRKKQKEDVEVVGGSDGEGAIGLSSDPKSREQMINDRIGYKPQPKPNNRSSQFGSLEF
T6 sequence (P30260 whole entry): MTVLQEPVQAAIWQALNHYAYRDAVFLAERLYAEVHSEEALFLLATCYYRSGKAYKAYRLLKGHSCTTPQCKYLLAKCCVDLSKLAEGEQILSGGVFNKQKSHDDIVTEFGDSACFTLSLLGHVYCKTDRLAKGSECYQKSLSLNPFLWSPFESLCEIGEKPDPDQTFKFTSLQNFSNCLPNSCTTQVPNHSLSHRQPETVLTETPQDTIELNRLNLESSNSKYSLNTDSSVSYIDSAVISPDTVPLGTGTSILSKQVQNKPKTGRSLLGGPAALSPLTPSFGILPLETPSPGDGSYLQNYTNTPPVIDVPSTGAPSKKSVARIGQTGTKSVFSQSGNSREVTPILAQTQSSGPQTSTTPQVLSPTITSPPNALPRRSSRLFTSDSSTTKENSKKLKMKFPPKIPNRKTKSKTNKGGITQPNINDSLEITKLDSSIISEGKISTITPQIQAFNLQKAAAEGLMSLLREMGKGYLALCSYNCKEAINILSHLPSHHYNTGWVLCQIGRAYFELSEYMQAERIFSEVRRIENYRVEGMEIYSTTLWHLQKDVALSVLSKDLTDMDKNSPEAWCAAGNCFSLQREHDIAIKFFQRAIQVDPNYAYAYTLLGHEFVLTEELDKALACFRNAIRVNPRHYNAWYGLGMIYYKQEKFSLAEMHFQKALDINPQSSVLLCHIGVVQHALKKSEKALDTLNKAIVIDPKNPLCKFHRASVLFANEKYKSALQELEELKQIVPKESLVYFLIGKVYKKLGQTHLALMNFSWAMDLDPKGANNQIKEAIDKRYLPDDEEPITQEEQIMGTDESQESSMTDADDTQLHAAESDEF
T4 sequence (Q9UJX3 1-297 limits assumed): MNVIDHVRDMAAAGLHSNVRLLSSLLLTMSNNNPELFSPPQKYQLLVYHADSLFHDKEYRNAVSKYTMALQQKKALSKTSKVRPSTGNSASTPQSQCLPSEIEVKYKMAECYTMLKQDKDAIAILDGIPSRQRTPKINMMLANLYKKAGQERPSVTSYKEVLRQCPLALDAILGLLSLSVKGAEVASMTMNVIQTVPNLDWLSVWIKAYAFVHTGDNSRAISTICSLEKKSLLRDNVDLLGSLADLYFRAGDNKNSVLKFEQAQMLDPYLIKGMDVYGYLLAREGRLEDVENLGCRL

binding result [1]: no binding
binding result [2]: no binding
binding result [3]: no binding
binding result [4]: no binding
binding result [5]: binds
B1: CDH1 C-terminal peptide CFSKTRSTKESVSVLNLFTRIR (peptide)
peptide: CFSKTRSTKESVSVLNLFTRIR
notes: Synthetic peptide; also called CDH1 C-terminus; CDH1 peptide

binding result [6]: no binding
binding result [7]: no binding
Binder: CAVWSLSSCKPGFGVD [control peptide CAVWSLSSCKPGFGVD]

binding result [1]: no binding
binding result [2]: no binding
binding result [5]: binds
B2: CDC20 C-terminal peptide CLRREREKASTSKSSLIHQGIR (peptide)
peptide: CLRREREKASTSKSSLIHQGIR
notes: Synthetic peptide; also called CDC20 C-terminus; CDC20 peptide
